The values that follow come from IntAct's records for PubMed 22939624.

First the molecules themselves.
B1: non-specific protein-tyrosine kinase (Homo sapiens), A9UEZ6 (parent)
chain: MVDPVGFAEAWKAQFPDSEPPRMELRSVGDIEQELERCKASIRRLEQEVNQERFRMIYLQTLLAKEKKSYDRQRWGFRRAAQAPDGASEPRASASRPQPAPADGADPPPAEEPEARPDGEGSPGKARPGTARRPGAAASGERDDRGPPASVAALRSNFERIRKGHGQPGADAEKPFYVNVEFHHERGLVKVNDKEVSDRISSLGSQAMQMERKKSQHGAGSSVGDASRPPYRGRSSESSCGVDGDYEDAELNPRFLKDNLIDANGGSRPPWPPLEYQPYQSIYVGGMMEGEGKGPLLRSQSTSEQEKRLTWPRRSYSPRSFEDCGGGYTPDCSSNENLTSSEEDFSSGQSSRVSPSPTTYRMFRDKSRSPSQNSQQSFDSSSPPTPQCHKRHRHCPVVVSEATIVGVRKTGQIWPNDGEGAFHGDADGSFGTPPGYGCAADRAEEQRRHQDGLPYIDDSPSSSPHLSSKGRGSRDALVSGALESTKASELDLEKGLEMRKWVLSGILASEETYLSHLEALLLPMKPLKAAATTSQPVLTSQQIETIFFKVPELYEIHKEFYDGLFPRVQQWSHQQRVGDLFQKLASQLGVYRVLGYNHNGEWCEAQTKNGQGWVPSNYITPVNSLEKHSWYHGPVSRNAAEYLLSSGINGSFLVRESESSPGQRSISLRYEGRVYHYRINTASDGKLYVSSESRFNTLAELVHHHSTVADGLITTLHYPAPKRNKPTVYGVSPNYDKWEMERTDITMKHKLGGGQYGEVYEGVWKKYSLTVAVKTLKEDTMEVEEFLKEAAVMKEIKHPNLVQLLGVCTREPPFYIITEFMTYGNLLDYLRECNRQEVNAVVLLYMATQISSAMEYLEKKNFIHRDLAARNCLVGENHLVKVADFGLSRLMTGDTYTAHAGAKFPIKWTAPESLAYNKFSIKSDVWAFGVLLWEIATYGMSPYPGIDLSQVYELLEKDYRMERPEGCPEKVYELMRACWQWNPSDRPSFAEIHQAFETMFQESSISDEVEKELGKQGVRGAVSTLLQAPELPTKTRTSRRAAEHRDTTDVPEMPHSKGQGESDPLDHEPAVSPLLPRKERGPPEGGLNEDERLLPKDKKTNLFSALIKKKKKTAPTPPKRSSSFREMDGQPERRGAGEEEGRDISNGALAFTPLDTADPAKSPKPSNGAGVPNGALRESGGSGFRSPHLWKKSSTLTSSRLATGEEEGGGSSSKRFLRSCSASCVPHGAKDTEWRSVTLPRDLQSTGRQFDSSTFGGHKSEKPALPRKRAGENRSDQVTRGTVTPPPRLVKKNEEAADEVFKDIMESSPGSSPPNLTPKPLRRQVTVAPASGLPHKEEAGKGSALGTPAAAEPVTPTSKAGSGAPGGTSKGPAEESRVRRHKHSSESPGRDKGKLSRLKPAPPPPPAASAGKAGGKPSQSPSQEAAGEAVLGAKTKATSLVDAVNSDAAKPSQPGEGLKKPVLPATPKPQSAKPSGTPISPAPVPSTLPSASSALAGDQPSSTAFIPLISTRVSLRKTRQPPERIASGAITKGVVLDSTEALCLAISRNSEQMASHSAVLEAGKNLYTFCVSYVDSIQQMRNKFAFREAINKLENNLRELQICPATAGSGPAATQDFSKLLSSVKEISDIVQR

In this test the parent is B1. Conditions: with hs90b_human HSP90AB1, P08238.
Chain of hs90b_human HSP90AB1, P08238 (P08238 whole entry): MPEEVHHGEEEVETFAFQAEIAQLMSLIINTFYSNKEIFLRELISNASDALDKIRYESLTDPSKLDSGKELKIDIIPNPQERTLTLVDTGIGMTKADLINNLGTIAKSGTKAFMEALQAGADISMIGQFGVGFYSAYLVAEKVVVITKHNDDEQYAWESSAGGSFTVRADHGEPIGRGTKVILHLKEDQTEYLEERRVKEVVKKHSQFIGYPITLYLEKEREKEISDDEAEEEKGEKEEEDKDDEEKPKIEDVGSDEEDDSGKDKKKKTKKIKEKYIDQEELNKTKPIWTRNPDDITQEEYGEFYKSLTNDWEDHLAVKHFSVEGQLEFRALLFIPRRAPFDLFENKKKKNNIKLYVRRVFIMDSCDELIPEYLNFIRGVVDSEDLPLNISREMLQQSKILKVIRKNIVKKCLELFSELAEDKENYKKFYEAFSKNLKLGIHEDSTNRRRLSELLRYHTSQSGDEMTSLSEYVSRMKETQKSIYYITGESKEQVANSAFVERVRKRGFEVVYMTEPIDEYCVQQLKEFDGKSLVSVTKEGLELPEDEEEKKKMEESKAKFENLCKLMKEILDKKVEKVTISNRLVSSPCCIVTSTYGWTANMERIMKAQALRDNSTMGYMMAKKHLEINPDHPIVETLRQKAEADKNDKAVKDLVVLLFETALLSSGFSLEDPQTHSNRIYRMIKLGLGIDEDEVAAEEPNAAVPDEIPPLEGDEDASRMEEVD
On to M975I, for which the “effect of a mutation on the interaction” value was “increasing interaction”. Then M747I, with “decreasing interaction”.
